According to US20260242735A1 (UNIVERSIT T BASEL, published 2026):

Columns and labels:
human CD33 N20V = human CD33 N20V (human, UniProt P20138 18-364); assay: flow cytometry, transfected cells
human CD33 P46R = human CD33 P46R (human, UniProt P20138 18-364); assay: flow cytometry, transfected cells
human CD33 N20Q = human CD33 N20Q (human, UniProt P20138 18-364); assay: flow cytometry, transfected cells
human CD33 N20Y = human CD33 N20Y (human, UniProt P20138 18-364); assay: flow cytometry, transfected cells
human CD33 N20W = human CD33 N20W (human, UniProt P20138 18-364); assay: flow cytometry, transfected cells
human CD33 P46D = human CD33 P46D (human, UniProt P20138 18-364); assay: flow cytometry, transfected cells
human CD33 P46H = human CD33 P46H (human, UniProt P20138 18-364); assay: flow cytometry, transfected cells
human CD33 P19D = human CD33 P19D (human, UniProt P20138 18-364); assay: flow cytometry, transfected cells
[1] = target: human CD33 extracellular region F21L (human, UniProt P20138 22-259); assay: BLI Octet, IgG captured on AHC, CD33 analyte;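 further: CD33 variants and wild type run as analyte at 5, 50 and 500 nM, 700 s association then 1200 s dissociation, buffer-only reference subtracted, global 1:1 fit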
Procedure: Human CD33 wt and variants, were used as analyte at 3 different concentrations (500, 50 and 5 nM). Association of the analyte to the antibodies was monitored for 700 s and dissociation of the analyte from the antibodies was monitored for 1200 s. Reference subtraction was performed against buffer only wells. AHC tips were regenerated using 10 mM Glycine-HCl pH 1.7. Data were analyzed with Octet Data Analysis software HT 12.0. Data were fitted to a 1:1 binding model. Kinetic rates ka and kd and response signal were globally fitted.

human CD33 Q24T = human CD33 Q24T (human, UniProt P20138 18-364); assay: flow cytometry, transfected cells
human CD33 N20L = human CD33 N20L (human, UniProt P20138 18-364); assay: flow cytometry, transfected cells
human CD33 N20S = human CD33 N20S (human, UniProt P20138 18-364); assay: flow cytometry, transfected cells
human CD33 D18R = human CD33 D18R (human, UniProt P20138 19-364); assay: flow cytometry, transfected cells
human CD33 Y129S = human CD33 Y129S (human, UniProt P20138 18-364); assay: flow cytometry, transfected cells
human CD33 Q24E = human CD33 Q24E (human, UniProt P20138 18-364); assay: flow cytometry, transfected cells
human CD33 Y49T = human CD33 Y49T (human, UniProt P20138 18-364); assay: flow cytometry, transfected cells
human CD33 Y50D = human CD33 Y50D (human, UniProt P20138 18-364); assay: flow cytometry, transfected cells
human CD33 Y50R = human CD33 Y50R (human, UniProt P20138 18-364); assay: flow cytometry, transfected cells
human CD33 Y50N = human CD33 Y50N (human, UniProt P20138 18-364); assay: flow cytometry, transfected cells
human CD33 Y49D = human CD33 Y49D (human, UniProt P20138 18-364); assay: flow cytometry, transfected cells
human CD33 P48N = human CD33 P48N (human, UniProt P20138 18-364); assay: flow cytometry, transfected cells
human CD33 P48H = human CD33 P48H (human, UniProt P20138 18-364); assay: flow cytometry, transfected cells
human CD33 Y50V = human CD33 Y50V (human, UniProt P20138 18-364); assay: flow cytometry, transfected cells
human CD33 Y49C = human CD33 Y49C (human, UniProt P20138 18-364); assay: flow cytometry, transfected cells
human CD33 P48K = human CD33 P48K (human, UniProt P20138 18-364); assay: flow cytometry, transfected cells
human CD33 P48S = human CD33 P48S (human, UniProt P20138 18-364); assay: flow cytometry, transfected cells
human CD33 Y50H = human CD33 Y50H (human, UniProt P20138 18-364); assay: flow cytometry, transfected cells
human CD33 Y129A = target: T1, human CD33 Y129A (human, UniProt P20138 18-364); assay: alanine scan, flow cytometry, HEK293-T;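 further: antibody binding to each alanine-substituted CD33 mutant expressed transiently in HEK293-T, read as fluorescence minus background, mean of duplicates, relative to wild-type CD33 set as 100%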
T1 construct: alanine scan clone, transfected HEK293-T
Procedure: (§1) An alanine scan on human CD33 was performed to the determine the residues on CD33 that are involved in binding to the antibodies investigated. […] Briefly, a mutation library of CD33 was created by high-throughput, site-directed mutagenesis. Each residue was individually mutated to alanine, with alanine codons mutated to serine. The mutant library was arrayed in 384-well microplates and transiently transfected into HEK293-T. Following transfection, cells were incubated with the indicated antibodies (IgG or Fab) at concentrations pre-determined using an independent immunofluorescence titration curve on wild type CD33. […] Binding of each antibody to each mutant clone was determined in duplicates. For each point, background fluorescence was subtracted from the raw data, which were then normalized to antibody reactivity with wild type CD33.
(§2) Critical residues for antibody binding (outlined in dark grey) were residues whose mutations led to a binding of the test Abs of less than 20%. Additional secondary residues (outlined in light grey) were identified that led to a binding of the test Abs of between 20 and 40% as compared to the wild type CD33.

human CD33 L134A = target: T2, human CD33 L134A (human, UniProt P20138 18-364); assay: alanine scan, flow cytometry, HEK293-T;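 further: antibody binding to each alanine-substituted CD33 mutant expressed transiently in HEK293-T, read as fluorescence minus background, mean of duplicates, relative to wild-type CD33 set as 100%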
T2 construct: alanine scan clone, transfected HEK293-T
Procedure: as §1, §2

human CD33 C212A = human CD33 C212A (human, UniProt P20138 18-364); assay: alanine scan, flow cytometry;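 further: HEK293-T cells transiently expressing single-residue alanine mutants of CD33 (alanine swapped to serine), antibody binding read by fluorescence in duplicate, background-subtracted, expressed relative to wild-type CD33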
Procedure: as §1, §2

human CD33 Y49G = human CD33 Y49G (human, UniProt P20138 18-364); assay: flow cytometry, transfected cells
human CD33 K52Y = human CD33 K52Y (human, UniProt P20138 18-364); assay: flow cytometry, transfected cells
human CD33 K52I = human CD33 K52I (human, UniProt P20138 18-364); assay: flow cytometry, transfected cells
human CD33 Y49H = human CD33 Y49H (human, UniProt P20138 18-364); assay: flow cytometry, transfected cells
human CD33 K52L = human CD33 K52L (human, UniProt P20138 18-364); assay: flow cytometry, transfected cells
human CD33 K52T = human CD33 K52T (human, UniProt P20138 18-364); assay: flow cytometry, transfected cells
human CD33 P132Q = human CD33 P132Q (human, UniProt P20138 18-364); assay: flow cytometry, transfected cells
human CD33 P132N = human CD33 P132N (human, UniProt P20138 18-364); assay: flow cytometry, transfected cells
human CD33 S131M = human CD33 S131M (human, UniProt P20138 18-364); assay: flow cytometry, transfected cells
human CD33 W22Y = human CD33 W22Y (human, UniProt P20138 18-364); assay: flow cytometry, transfected cells

human CD33 Y50V, sequence (P20138 18-364 Y50V limits assumed): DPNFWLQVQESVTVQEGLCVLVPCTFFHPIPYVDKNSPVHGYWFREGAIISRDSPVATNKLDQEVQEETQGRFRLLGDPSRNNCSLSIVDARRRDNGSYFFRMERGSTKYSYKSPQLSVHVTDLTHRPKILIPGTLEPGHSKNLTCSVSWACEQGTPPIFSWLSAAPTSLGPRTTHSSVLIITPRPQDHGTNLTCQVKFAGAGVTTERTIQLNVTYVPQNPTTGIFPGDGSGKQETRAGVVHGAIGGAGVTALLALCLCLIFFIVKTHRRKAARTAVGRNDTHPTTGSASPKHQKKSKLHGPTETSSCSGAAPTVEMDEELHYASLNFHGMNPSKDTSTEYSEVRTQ
human CD33 P46H, sequence (P20138 18-364 P46H limits assumed): as the sequence (P20138 18-364 Y50V limits assumed) above, with P29H, V33Y counted along it
human CD33 P48H, sequence (P20138 18-364 P48H limits assumed): as the sequence (P20138 18-364 Y50V limits assumed) above, with P31H, V33Y counted along it
human CD33 P48N, sequence (P20138 18-364 P48N limits assumed): as the sequence (P20138 18-364 Y50V limits assumed) above, with P31N, V33Y counted along it
human CD33 Y49D, sequence (P20138 18-364 Y49D limits assumed): as the sequence (P20138 18-364 Y50V limits assumed) above, with Y32D, V33Y counted along it
human CD33 P19D, sequence (P20138 18-364 P19D limits assumed): as the sequence (P20138 18-364 Y50V limits assumed) above, with P2D, V33Y counted along it
human CD33 Y50H, sequence (P20138 18-364 Y50H limits assumed): as the sequence (P20138 18-364 Y50V limits assumed) above, with V33H counted along it
human CD33 P46D, sequence (P20138 18-364 P46D limits assumed): as the sequence (P20138 18-364 Y50V limits assumed) above, with P29D, V33Y counted along it
human CD33 Y49C, sequence (P20138 18-364 Y49C limits assumed): as the sequence (P20138 18-364 Y50V limits assumed) above, with Y32C, V33Y counted along it
human CD33 N20Y, sequence (P20138 18-364 N20Y limits assumed): as the sequence (P20138 18-364 Y50V limits assumed) above, with N3Y, V33Y counted along it
human CD33 P46R, sequence (P20138 18-364 P46R limits assumed): as the sequence (P20138 18-364 Y50V limits assumed) above, with P29R, V33Y counted along it
human CD33 N20Q, sequence (P20138 18-364 N20Q limits assumed): as the sequence (P20138 18-364 Y50V limits assumed) above, with N3Q, V33Y counted along it
human CD33 Y50D, sequence (P20138 18-364 Y50D limits assumed): as the sequence (P20138 18-364 Y50V limits assumed) above, with V33D counted along it
human CD33 N20V, sequence (P20138 18-364 N20V limits assumed): as the sequence (P20138 18-364 Y50V limits assumed) above, with N3V, V33Y counted along it

B1: Refmab #1 (antibody, human IgG1, V domains shown)
VH: EVQLVQSGAEVKKPGSSVKVSCKASGYTITDSNIHWVRQAPGQSLEWIGYIYPYNGGTDYNQKFKNRATLTVDNPTNTAYMELSSLRSEDTAFYYCVNGNPWLAYWGQGTLVTVSS
VL: DIQLTQSPSTLSASVGDRVTITCRASESLDNYGIRFLTWFQQKPGKAPKLLMYAASNQGSGVPSRFSGSGSGTEFTLTISSLQPDDFATYYCQQTKEVPWSFGQGTKVEVK
notes: also called hP67.6; Absolute Antibody Cat. No. Ab00283-10.0
binding result (human CD33 N20V): no binding (tested: below 20%)
binding result (human CD33 P46R): no binding (tested: below 20%)
binding result (human CD33 N20Q): no binding (tested: below 20%)
binding result (human CD33 N20Y): no binding (tested: below 20%)
binding result (human CD33 N20W): no binding (tested: below 20%)
binding result (human CD33 P46D): no binding (tested: below 20%)
binding result (human CD33 P46H): no binding (tested: below 20%)
binding result (human CD33 P19D): no binding (tested: below 20%)

B2: Refmab #3 (antibody, human IgG1, V domains shown)
VH: QVQLVQSGAEVKKPGSSVKVSCKASGYTFTDYNMHWVRQAPGQGLEWIGYIYPYNGGTGYNQKFKSKATITADESTNTAYMELSSLRSEDTAVYYCARGRPAMDYWGQGTLVTVSS
VL: DIQMTQSPSSLSASVGDRVTITCRASESVDNYGISFMNWFQQKPGKAPKLLIYAASNQGSGVPSRFSGSGSGTDFTLTISSLQPDDFATYYCQQSKEVPWTFGQGTKVEIK
% WT binding [1]: 0%
binding result (human CD33 Q24T): no binding (tested: below 20%)
binding result (human CD33 N20L): no binding (tested: below 20%)
binding result (human CD33 N20S): no binding (tested: below 20%)
binding result (human CD33 N20V): no binding (tested: below 20%)
binding result (human CD33 P46R): no binding (tested: below 20%)
binding result (human CD33 N20Q): no binding (tested: below 20%)
binding result (human CD33 N20Y): no binding (tested: below 20%)
binding result (human CD33 N20W): no binding (tested: below 20%)
binding result (human CD33 D18R): no binding (tested: below 20%)
binding result (human CD33 P46D): no binding (tested: below 20%)
binding result (human CD33 P46H): no binding (tested: below 20%)
binding result (human CD33 Y129S): no binding (tested: below 20%)
binding result (human CD33 P19D): no binding (tested: below 20%)
binding result (human CD33 Q24E): no binding (tested: below 20%)

B3: Refmab #4 (antibody, human IgG1, V domains shown)
VH: QVQLVQSGAEVKKPGESVKVSCKASGYTFTNYGMNWVKQAPGQGLEWMGWINTYTGEPTYADKFQGRVTMTTDTSTSTAYMEIRNLGGDDTAVYYCARWSWSDGYYVYFDYWGQGTSVTVSS
VL: DIVMTQSPDSLTVSLGERTTINCKSSQSVLDSSTNKNSLAWYQQKPGQPPKLLLSWASTRESGIPDRFSGSGSGTDFTLTIDSPQPEDSATYYCQQSAHFPITFGQGTRLEIK
% WT binding [1]: 109%
binding result (human CD33 Y49T): no binding (tested: below 20%)
binding result (human CD33 Y50D): no binding (tested: below 20%)
binding result (human CD33 Y50R): no binding (tested: below 20%)
binding result (human CD33 Y50N): no binding (tested: below 20%)
binding result (human CD33 Y49D): no binding (tested: below 20%)
binding result (human CD33 P48N): no binding (tested: below 20%)
binding result (human CD33 P48H): no binding (tested: below 20%)
binding result (human CD33 Y50V): no binding (tested: below 20%)
binding result (human CD33 Y49C): no binding (tested: below 20%)
binding result (human CD33 P48K): no binding (tested: below 20%)
binding result (human CD33 P48S): no binding (tested: below 20%)
binding result (human CD33 Y50H): no binding (tested: below 20%)

B4: Refmab #5 (antibody, V domains shown)
VH: QVQLVQSGAEVKKPGASVKVSCKASGYTFTNYDINWVRQAPGQGLEWIGWIYPGDGSTKYNEKFKAKATLTADTSTSTAYMELRSLRSDDTAVYYCASGYEDAMDYWGQGTTVTVSS
VL: DIQMTQSPSSLSASVGDRVTINCKASQDINSYLSWFQQKPGKAPKTLIYRANRLVDGVPSRFSGSGSGQDYTLTISSLQPEDFATYYCLQYDEFPLTFGGGTKVEIK
notes: The alanine scan used IgG or Fab
Mean % WT Binding (human CD33 Y129A): 196 % WT binding
Mean % WT Binding (human CD33 L134A): 95.9 % WT binding

B5: Refmab #5 (antibody, V domains shown)
VH: B4 VH
VL: B4 VL
notes: Full-length format is human IgG1 Fc silent (PG-LALA); also made as Fab; The alanine scan used IgG or Fab
Mean % WT Binding (human CD33 C212A): 28.4 % WT binding

B6: Refmab #5 (antibody, human IgG1, V domains shown)
VH: B4 VH
VL: B4 VL
binding result (human CD33 Y49G): no binding (tested: below 20%)
binding result (human CD33 K52Y): no binding (tested: below 20%)
binding result (human CD33 Y50D): no binding (tested: below 20%)
binding result (human CD33 Y50N): no binding (tested: below 20%)
binding result (human CD33 K52I): no binding (tested: below 20%)
binding result (human CD33 Y49D): no binding (tested: below 20%)
binding result (human CD33 P48N): no binding (tested: below 20%)
binding result (human CD33 P48H): no binding (tested: below 20%)
binding result (human CD33 Y50V): no binding (tested: below 20%)
binding result (human CD33 Y49C): no binding (tested: below 20%)
binding result (human CD33 Y49H): no binding (tested: below 20%)
binding result (human CD33 K52L): no binding (tested: below 20%)
binding result (human CD33 K52T): no binding (tested: below 20%)
binding result (human CD33 Y50H): no binding (tested: below 20%)

B7: Refmab #6 (antibody, human IgG1, V domains shown)
VH: QVQLQQPGAEVVKPGASVKMSCKASGYTFTSYYIHWIKQTPGQGLEWVGVIYPGNDDISYNQKFQGKATLTADKSSTTAYMQLSSLTSEDSAVYYCAREVRLRYFDVWGQGTTVTVSS
VL: EIVLTQSPGSLAVSPGERVTMSCKSSQSVFFSSSQKNYLAWYQQIPGQSPRLLIYWASTRESGVPDRFTGSGSGTDFTLTISSVQPEDLAIYYCHQYLSSRTFGQGTKLEIK
binding result (human CD33 P132Q): no binding (tested: below 20%)
binding result (human CD33 P132N): no binding (tested: below 20%)
binding result (human CD33 S131M): no binding (tested: below 20%)
binding result (human CD33 W22Y): no binding (tested: below 20%)
